Measurements as given in patent US11111484B2, “Streptococcus bacteriophage lysins for detection and treatment of gram positive bacteria” (priority 2011, dated 2021).
“And” between values parts separate entries of the source, which are not always exact repeats. Equal values may be shown once. “Also recorded” adds a separate entry of the source.

What was measured:
MRSA = assay: rat MRSA wound infection with sterile sand (foreign body); format: in vivo, rats; details: for CFU/Gram, AVG: 10 mg PlySs2 single dose, 15 rats, after 10 days, not true Avg since < values
Procedure: Animal experiments were initiated by determining the infectious dose of MRSA necessary to cause infection in the rat wound. […] However, when we added a foreign body ([…]), infection occurred at <10^8 CFUs. Specifically, incisions were made in the backs of the rats (5-6 cm in length) and a 2-3 mm incision was made in the underlying tissue. To this was added 100 mg sterile sand and 50 μl of MRSA. The wounds were stapled closed and the animals followed for 10 days and the wounds opened and examined for gross changes and tissue samples taken for bacteriological examination.
Samples (weighed and homogenized tissue) taken from the opened wound yielded about 10^7 CFU MRSA/gram of tissue. This model was very reproducible yielding the same results in at least 10 animals.
We used the model as described above to treat with PlySs2 lysin to determine the effects of the treatment. In this case, half of the animals receiving the MRSA and sand were treated with 10 mg PlySs2 in 50 ul of phosphate buffer (PB), control animals received PB instead 10 minutes after MRSA dosing. The animals were followed for 10 days. At this time the animals were analyzed for gross changes and microbiology. […] This is in sharp contrast to animals treated with a single dose of PlySS2.

Listeria strains = assay: PlySs2 lytic activity against species and strains (FIG. 25); format: cell-based; details: 32 μg/ml, 60 minutes
Procedure: (§1) FIG. 25 provides PlySs2 activity against different species and strains. Log-phase cultures were exposed to 32 μg/ml PlySs2 for 60 minutes in phosphate buffer. The final OD600 of the treated samples were divided by the final OD600 of the untreated samples to generate the normalized values above. Multiple Staphylococci (including, but not limited to: MRSA, MSSA, and VISA), Streptococci, Listeria, Enterococci, and Bacilli were tested for susceptibility to PlySs2 activity. Escherichia and Pseudomonas were tested as Gram-negative controls.

Pseudomonas = assay: as above; format: cell-based; details: Gram-negative control
Procedure: as §1

MRSA strain MW2 = assay: murine septicemia model, MRSA infection alone; format: in vivo, FVB/NJ mice; details: PlySs2 1 mg
Procedure: The Rockefeller University's Institutional Animal Care and Use Committee approved all in vivo protocols. A systemic infection model described in Daniel, A. et al., was used to test for the in vivo efficacy of PlySs2 against multiple gram-positive bacteria. Briefly, 4-5 week old female FVB/NJ mice (weight range 15 to 20 g) were obtained from The Jackson Laboratory (Bar Harbor, Me.). After a period of acclimation, mice were injected intraperitoneally (IP) with 0.5 ml of mid log-phase (OD600 0.5) bacteria diluted with 5% hog gastric mucin (Sigma) in saline. Bacterial suspensions contained ˜5×10^5 CFU/ml of MW2, a PVL toxin-encoding MRSA strain, ˜1×10^7 of MGAS5005, an M1 serotype of Streptococcus pyogenes that is virulent in humans and mice (Musser), or a combination of both bacteria simultaneously at the above concentrations for the mix infection experiments. Actual bacterial inoculation titers were calculated by serial dilution and plating to Columbia blood agar plates for each experiment. Mice became bacteremic within one to three hours and contained MRSA and/or S. pyogenes in their organs (including spleen, liver, kidney, and heart/blood) ([50], and unpublished observations). […] The survival rate for each experimental group was monitored every 12 hours for the first 24 hours then every 24 hours up to 10 days post-infection. The data were statistically analyzed by Kaplan Meier Survival curves and a Logrank test performed for 95% confidence intervals using the Prism computer program (GraphPad Software; La Jolla, Calif.).
To determine if the broad lytic activity of PlySs2 could provide in vivo protection from infection with gram-positive pathogens, either alone or as a mixed infection, FVB/NJ mice were intraperitoneally injected with ˜5×10^5 CFU of MRSA strain MW2, ˜1×10^7 of S. pyogenes strain MGAS5005 and/or both bacteria simultaneously at the concentrations above. […] Mice were then monitored for survival over ten days. […]

E. faecalis V583 = assay: ΔPlySs1 OD600 lysis, 1 hr, optimal buffering conditions; format: cell-based, Enterococcus faecalis
S. suis strain 7711 = assay: ΔPlySs1 growth inhibition in BHI broth; format: cell-based, Streptococcus suis; details: overnight, 96-well plate
Procedure: The optical density of each sample was measured continuously overnight in 96-well plate format. Overall, bacterial growth was delayed in a dose-dependent manner. However, for enzyme-concentrations that were sufficient to induce lysis in buffered solutions (130 and 50 μg/ml), the effect was quite minimal here. […] For all of the treated samples, one will note that the final optical densities are actually higher than that of the untreated sample. This is an artifact of the accumulation of aggregated bacterial debris that occurred in the presence of lytic enzyme.
Truncated PlySs1(ΔPlySs1) lysin activity was determined against different cell types. Given the above experiments, the following optimal buffering conditions were employed for all further in vitro experiments with ΔPlySs1: 20 mM phosphate buffer, pH=7.8, 2 mM EDTA. A range of lysin concentrations, from 6.5-130 μg/ml, were introduced to live S. suis cells in this buffer. Three strains were considered particularly relevant: 7711, the serotype 7 strain that encodes PlySs1; S735, the serotype 2 reference strain; and 7997, a highly virulent serotype 9 strain. In terms of bacterial viability, only the highest PlySs1-concentration (130 μg/ml) led to a >90% decrease in CFUs for 7711, S735, and 7997 after 1 hr treatment (TABLE 2). The lysin was also tested against actively-dividing cells in broth culture (strain 7711) (FIG. 20).

S. agalactiae type II = assay: ΔPlySs1 OD600 lysis, 1 hr, optimal buffering conditions; format: cell-based, Streptococcus agalactiae

B1: PlySs2: Streptococcus suis prophage lysin, SEQ ID NO:3; N-terminal CHAP domain and C-terminal SH3-type 5 domain (protein, listed as Streptococcus suis)
chain: MTTVNEALNNVRAQVGSGVSVGNGECYALASWYERMISPDATVGLGAGVGWVSGAIGDTISAKNIGSSYNWQANGWTVSTSGPFKAGQIVTLGATPGNPYGHVVIVEAVDGDRLTILEQNYGGKRYPVRNYYSAASYRQQVVHYITPPGTVAQSAPNLAGSRSYRETGTMTVTVDALNVRRAPNTSGEIVAVYKRGESFDYDTVIIDVNGYVWVSYIGGSGKRNYVATGATKDGKRFGNAWGTFK
For B1, the “CFU/Gram, individual rats P1-P15” value (MRSA; 10 mg PlySs2 single dose 10 minutes after MRSA, wound tissue after 10 days) was <5.00E+01 CFU/Gram (10×) and 9.10E+01 CFU/Gram and 5.00E+01 CFU/Gram and 8.40E+02 CFU/Gram and 3.20E+02 CFU/Gram (2×), the “CFU/Gram, AVG” value (MRSA) was 1.41×10^2 CFU/Gram and the “CFU/Gram, AVG” value (MRSA; listed as PLYSS2) was 1.41E+02 CFU/Gram. The “CFU Reduction vs Control” value (MRSA; AVG buffer / AVG PlySs2) was “CFU Reduction vs Control 3.02E+04”, the “reduction of MRSA” value (MRSA; PlySs2 vs buffer, wound tissue after 10 days) was over 4 logs and the “gross changes of wounds” value (MRSA; single dose of PlySS2, 10 days) was “did not exhibit pus or necrosis and exhibited better healing”. For the same molecule, the “strains lysed of strains tested” value (Listeria strains) was 2 of 6, the lytic activity (Pseudomonas) was “did not display activity” and the “survival over 10 days (mice surviving/total)” value (MRSA strain MW2; IP 3 h post-infection, ClyS 1 mg) was 16/18. The “mice died at forty-eight hours (dead/total)” value (MRSA strain MW2) was 2/18 and the “survival over 10 days” value (MRSA strain MW2; ClyS 1 mg) was 88%.

B2: ΔPlySs1: truncated PlySs1 lysin, SEQ ID NO:2, N-terminal 254 amino acids: only N-terminal enzymatic and central binding domains (protein, listed as Streptococcus suis)
chain: MTINLETSIRWMSDRVGKVSYSMDYRNGPNSYDCSSAVYYALMAGGAISAGWAVNTEYMHDWLIRNGYVLVAENKPFNAQRHDVCILGKRGYSSGAGGHVVIFVDNVNVIHCNYARNGISIDNYNQVHRGMYYYLYRPANQPSISNKSLDQLVKETLAGVHGNGDTRKASLGSQYEAVMAVINGKASASEKSDEELAREVLAGKHGAGEDRKRSLGPRYEPVQAKVNELLKAKEKPSETAKNEPQTVQFKEDGDL
In the case of B2, the “lysis value after 1 hr (treated/untreated OD600 ratio)” value (E. faecalis V583; 6.5 μg/ml) is reported as 0.98, the “lysis value after 1 hr (treated/untreated OD600 ratio)” value (E. faecalis V583; 13 μg/ml) is reported as 0.93 and the “lysis value after 1 hr (treated/untreated OD600 ratio)” value (E. faecalis V583; 30 μg/ml) is reported as 0.84. For the same molecule, the “lysis value after 1 hr (treated/untreated OD600 ratio)” value (E. faecalis V583; 65 μg/ml) was 0.71, the “lysis value after 1 hr (treated/untreated OD600 ratio)” value (E. faecalis V583; 130 μg/ml) was 0.52 and the “MIC / growth inhibition” value (S. suis strain 7711) was “could not inhibit S. suis growth outright; also recorded: a MIC could not be assigned”. The “lysis value after 1 hr (treated/untreated OD600 ratio)” value (S. agalactiae type II; 6.5 μg/ml) was 0.61, the “lysis value after 1 hr (treated/untreated OD600 ratio)” value (S. agalactiae type II; 13 μg/ml) was 0.21 and the “lysis value after 1 hr (treated/untreated OD600 ratio)” value (S. agalactiae type II; 30 μg/ml) was 0.11. For the same molecule, the “lysis value after 1 hr (treated/untreated OD600 ratio)” value (S. agalactiae type II; 65 μg/ml) was 0.08 and the “lysis value after 1 hr (treated/untreated OD600 ratio)” value (S. agalactiae type II; 130 μg/ml) was 0.04.
